Measured values reported in article PMC8441438, “Dynamic regulation of mitotic ubiquitin ligase APC/C by coordinated Plx1 kinase and PP2A phosphatase action on a flexible Apc1 loop” (The EMBO Journal, 2021).

B1: MBP-fused Apc1-loop^500 WT fragment [Xenopus tropicalis] / Plx1 (polo-like kinase homolog in Xenopus laevis), endogenous [Xenopus laevis (endogenous in egg extracts)] (parent)
chain 1: MAQVAGKKLTVAPEAAKPPGIPGSSSAVKEIPEILVDPRTRRRYLRGRFLGKGGFAKCYEITDLESREVFAGKIVPKTMLLKPHQKDKMTMEIAIQRSLDHRHVVGFHGFFEDNDFVYVVLELCRRRSLLELHKRRKAVTEPEARYYLKQTISGCQYLHSNRVIHRDLKLGNLFLNDEMEVKIGDFGLATKVEYDGERKKTLCGTPNYIAPEVLGKKGHSFEVDIWSIGCIMYTLLVGKPPFETSCLKETYMRIKKNEYSIPKHINPVAAALIQKMLRSDPTSRPTIDDLLNDEFFTSGYIPSRLPTTCLTVPPRFSIAPSTIDQSLRKPLTAINKGQDSPLVEKQVAPAKEEEMQQPEFTEPADCYLSEMLQQLTCLNAVKPSERALIRQEEAEDPASIPIFWISKWVDYSDKYGLGYQLCDNSVGVLFNDSTRLIMYNDGDSLQYIERNNTESYLNVRSYPTTLTKKITLLKYFRNYMSEHLLKAGANTTPREGDELARLPFLRTWFRTRSAIILHLSNGTVQINFFQDHTKIILCPLMAAVSYIDEKREFRTYKLSLIQEFGCCKELASRLRYARTMVEKLQSSKSAVAHVKASA
chain 2: GLAAPSLGMSNPMPRPSTPLESISTPAKPLNKHLAPMDEAGMLSPVPELRDSTRLHESTYLDDCTFHQFG
B2: MBP-fused Apc1-loop^500 WT fragment [Xenopus tropicalis] / Plx1-PBD WT (polo-box domain of Plx1) [Xenopus laevis] (parent)
chain 1: EPADCYLSEMLQQLTCLNAVKPSERALIRQEEAEDPASIPIFWISKWVDYSDKYGLGYQLCDNSVGVLFNDSTRLIMYNDGDSLQYIERNNTESYLNVRSYPTTLTKKITLLKYFRNYMSEHLLKAGANTTPREGDELARLPFLRTWFRTRSAIILHLSNGTVQINFFQDHTKIILCPLMAAVSYIDEKREFRTYKLSLIQEFGCCKELASRLRYARTMVEKLQSSKSAVAHVKASA
chain 2: B1 chain 2

Variants of: B1
Test: MBP pull-down (amylose beads) from Xenopus egg anaphase extracts, immunoblot with Plx1 antibody, quantified
Conditions: anaphase extracts supplemented with non-degradable cyclin B, 23°C, 1 h, parent: 1, read off a plot

Which ratio to parent does the source give for chain 2 T18A here?
Its ratio to parent is 0.92 A.U.

Which ratio to parent does the source give for chain 2 T18A T25A here?
The ratio to parent was 0.51 A.U.

How did the ratio to parent turn out when chain 2 S44A was run?
Its ratio to parent is 0.5 A.U.

How did the ratio to parent turn out when chain 2 T25A was run?
The ratio to parent was 0.61 A.U.

Variants of: B2
Test: MBP pull-down (amylose beads), SDS-PAGE with Coomassie brilliant blue staining, quantified
Conditions: anaphase extracts supplemented with non-degradable cyclin B, 23°C, 1 h, then 10 µg WT Plx1-PBD for 15 min, parent: 1, read off a plot

How did the ratio to parent turn out when chain 2 T18A T25A was run?
Its ratio to parent is 0.03.

Variants of: B2
Test: MBP pull-down (amylose beads), SDS-PAGE with Coomassie brilliant blue staining, quantified as bound Plx1-PBD per Apc1-loop500
Conditions: with MBP-fused Apc1-loop^500 WT fragment [Xenopus tropicalis]; input 10 µg Plx1-PBD, 15 min; Apc1-loop500 pre-incubated in anaphase extracts with non-degradable cyclin B, 23°C, 1 h; parent: 1.1; read off a plot

For chain 1 H171A K173M, which response is on record?
The response was 0.07 A.U.

Same assay, conditions: with MBP-fused Apc1-loop^500 WT fragment [Xenopus tropicalis]; input 15 µg Plx1-PBD, 15 min; Apc1-loop500 pre-incubated in anaphase extracts with non-degradable cyclin B, 23°C, 1 h; parent: 1.4; read off a plot

Which response does the source give for chain 1 H171A K173M here?
The response was 0.09 A.U.
